Earlier results on 1 substance are cited in publication PMC4225561.

In the data set the target is Myo4p 27-residue fragment (Saccharomyces cerevisiae) (UniProt P32492). As to the kind of experiment: pull-down.
Sequence of UniProt P32492 (P32492 528-554): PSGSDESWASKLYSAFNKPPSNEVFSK

By Kd is commonly meant a measure of binding affinity in units of concentration. She4p (from UniProt P51534): the Kd was 1000 nM.
